Data published in the supplement of paper PMC11316812.
± gives the standard deviation of the averaged measurements.

Legend:
MCF7 = assay: percentage of EdU-negative (G0-arrested) nuclei per well, 72 h; higher = more G0 arrest; details: reference: sequence is the full UniProt precursor, the tested protein was the secreted form or ectodomain
hTERT-HMEC = assay: as above; details: reference: sequence is the full UniProt precursor, the tested protein was the secreted form or ectodomain
[1] = protein concentration 0.0225 µM
[2] = protein concentration 0.0255 µM
[3] = protein concentration 0.03125 µM
[4] = protein concentration 0.3125 µM
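Note: secreted proteins added to cultured cells, EdU pulse at the end, nuclei found by Hoechst imaging, EdU status from nuclear versus surrounding ring intensity ratio, PBS as neutral control.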

Sequence | percentage of EdU-negative (MCF7; [1]) [%] | percentage of EdU-negative (MCF7; protein concentration 0.225 µM) [%] | percentage of EdU-negative (hTERT-HMEC; [1]) [%] | percentage of EdU-negative (hTERT-HMEC; protein concentration 0.225 µM) [%] | further results
MGCLLFLLLWALLQAWGSAEVPQRLFPLRCLQISSFANSSWTRTDGLAWLGELQTHSWSNDSDTVRSLKPWSQGTFSDQQWETLQHIFRVYRSSFTRDVKEFAKMLRLSYPLELQVSAGCEVHPGNASNNFFHVAFQGKDILSFQGTSWEPTQEAPLWVNLAIQVLNQDKWTRETVQWLLNGTCPQFVSGLLESGKSELKKQVKPKAWLSRGPSPGPGRLLLVCHVSGFYPKPVWVKWMRGEQEQQGTQPGDILPNADETWYLRATLDVVAGEAAGLSCRVKHSSLEGQDIVLYWGGSYTSMGLIALAVLACLLFLLIVGFTSRFKRQTSYQGVL | 23.9 ± 2.6 | 27.61 ± 0.11 | 4.97 ± 0.24 | 5.04 ± 0.17 | –
MAQRMTTQLLLLLVWVAVVGEAQTRIAWARTELLNVCMNAKHHKEKPGPEDKLHEQCRPWRKNACCSTNTSQEAHKDVSYLYRFNWNHCGEMAPACKRHFIQDTCLYECSPNLGPWIQQVDQSWRKERVLNVPLCKEDCEQWWEDCRTSYTCKSNWHKGWNWTSGFNKCAVGAACQPFHFYFPTPTVLCNEIWTHSYKVSNYSRGSGRCIQMWFDPAQGNPNEEVARFYAAAMSGAGPWAAWPFLLSLALMLLWLLS | 25.4 ± 1.9 | 24.4 ± 0.58 | 15.7 ± 0.18 | 10.3 ± 8.7 | –
MALPFALLMALVVLSCKSSCSLDCDLPQTHSLGHRRTMMLLAQMRRISLFSCLKDRHDFRFPQEEFDGNQFQKAEAISVLHEVIQQTFNLFSTKDSSVAWDERLLDKLYTELYQQLNDLEACVMQEVWVGGTPLMNEDSILAVRKYFQRITLYLTEKKYSPCAWEVVRAEIMRSFSSSRNLQERLRRKE | – | – | – | – | percentage of EdU-negative (MCF7; [2]): 48.4 ± 2.7%; percentage of EdU-negative (MCF7; protein concentration 0.255 µM): 49.64 ± 0.2%; percentage of EdU-negative (hTERT-HMEC; [2]): 15.8 ± 6.2%; percentage of EdU-negative (hTERT-HMEC; protein concentration 0.255 µM): 27.4 ± 0.99%
MAPSSPRPALPALLVLLGALFPGPGNAQTSVSPSKVILPRGGSVLVTCSTSCDQPKLLGIETPLPKKELLLPGNNRKVYELSNVQEDSQPMCYSNCPDGQSTAKTFLTVYWTPERVELAPLPSWQPVGKNLTLRCQVEGGAPRANLTVVLLRGEKELKREPAVGEPAEVTTTVLVRRDHHGANFSCRTELDLRPQGLELFENTSAPYQLQTFVLPATPPQLVSPRVLEVDTQGTVVCSLDGLFPVSEAQVHLALGDQRLNPTVTYGNDSFSAKASVSVTAEDEGTQRLTCAVILGNQSQETLQTVTIYSFPAPNVILTKPEVSEGTEVTVKCEAHPRAKVTLNGVPAQPLGPRAQLLLKATPEDNGRSFSCSATLEVAGQLIHKNQTRELRVLYGPRLDERDCPGNWTWPENSQQTPMCQAWGNPLPELKCLKDGTFPLPIGESVTVTRDLEGTYLCRARSTQGEVTRKVTVNVLSPRYEIVIITVVAAAVIMGTAGLSTYLYNRQRKIKKYRLQQAQKGTPMKPNTQATPP | – | – | – | – | percentage of EdU-negative (MCF7; [3]): 24.7 ± 1.5%; percentage of EdU-negative (MCF7; [4]): 24.2 ± 3.4%; percentage of EdU-negative (hTERT-HMEC; [3]): 5 ± 0.26%; percentage of EdU-negative (hTERT-HMEC; [4]): 5.68 ± 0.88%
MQAARGGAGRPERPGRPGRGPERERERPPGAGAASPCAAPGLPAGGATIHPGSPSAWPPRARAALRLWLGCVCFALVQADSPSAPVNVTVRHLKANSAVVSWDVLEDEVVIGFAISQQKKDVRMLRFIQEVNTTTRSCALWDLEEDTEYIVHVQAISIQGQSPASEPVLFKTPREAEKMASKNKDEVTMKEMGRNQQLRTGEVLIIVVVLFMWAGVIALFCRQYDIIKDNEPNNNKEKTKSASETSTPEHQGGGLLRSKI [Q8NAU1] | 27.08 ± 0.2 | 25.3 ± 1.4 | 5.26 ± 1.1 | 5.43 ± 0.82 | –
MQPRTPLVLCVLLSQVLLLTSAEDLDCTPGFQQKVFHINQPAEFIEDQSILNLTFSDCKGNDKLRYEVSSPYFKVNSDGGLVALRNITAVGKTLFVHARTPHAEDMAELVIVGGKDIQGSLQDIFKFARTSPVPRQKRSIVVSPILIPENQRQPFPRDVGKVVDSDRPERSKFRLTGKGVDQEPKGIFRINENTGSVSVTRTLDREVIAVYQLFVETTDVNGKTLEGPVPLEVIVIDQNDNRPIFREGPYIGHVMEGSPTGTTVMRMTAFDADDPATDNALLRYNIRQQTPDKPSPNMFYIDPEKGDIVTVVSPALLDRETLENPKYELIIEAQDMAGLDVGLTGTATATIMIDDKNDHSPKFTKKEFQATVEEGAVGVIVNLTVEDKDDPTTGAWRAAYTIINGNPGQSFEIHTNPQTNEGMLSVVKPLDYEISAFHTLLIKVENEDPLVPDVSYGPSSTATVHITVLDVNEGPVFYPDPMMVTRQEDLSVGSVLLTVNATDPDSLQHQTIRYSVYKDPAGWLNINPINGTVDTTAVLDRESPFVDNSVYTALFLAIDSGNPPATGTGTLLITLEDVNDNAPFIYPTVAEVCDDAKNLSVVILGASDKDLHPNTDPFKFEIHKQAVPDKVWKISKINNTHALVSLLQNLNKANYNLPIMVTDSGKPPMTNITDLRVQVCSCRNSKVDCNAAGALRFSLPSVLLLSLFSLACL | 24.7 ± 1.2 | 27.1 ± 0.61 | 4.14 ± 0.25 | 9.2557 ± 0.0081 | –
MTPSRLPWLLSWVSATAWRAARSPLLCHSLRKTSSSQGGKSELVKQSLKKPKLPEGRFDAPEDSHLEKEPLEKFPDDVNPVTKEKGGPRGPEPTRYGDWERKGRCIDF [Q5VUM1] | 28 ± 2.2 | 25.4 ± 1.5 | 5.46 ± 0.82 | 5.79 ± 0.17 | –
